# Measured values reported in patent publication US20060263354A1 (published 2006).
# Numbering of substitutions follows the chain as printed.
# B1: 1-257-1 (antibody, V domains shown)
# VH: EVQLVESGGGLVKPGGSLRLSCAASGFTFSSYSMNWVRQAPGKGLEWVSSISSSSSYIYYADSVKGRFTISRDNAKNSLYLQMNSLRAEDTAVYYCARDRGYYYGMDVWGQGTTVTVSS
# VL: DIQMTQSPSSLSASVGDRVTLTCRASQGIRNALGWYQQKPGKAPKRLIYGASSLQSGVPSRFSGSGSGTEFTLTISSLQPEDFATYYCLQHNSYPFTFGPGTKVDIKR
# B2: 1-268-1 (antibody, V domains shown)
# VH: B1 VH with Y102S, Y104F, G105L, M106F, V108Y, T114L
# VL: B1 VL with I2M, L21I, A32D, F83S, F96L, P100G, D105E
# B3: 1-66-1 (antibody, V domains shown)
# VH: B1 VH with Y103S, M106L, V108Y, T114L
# VL: B1 VL with L21I, A32D, G50A, H91L
# B4: 1-136-3 (antibody, V domains shown)
# VH: B1 VH with Y103S, M106I, V108Y, T114L
# VL: B1 VL with L21I, G50A, F96R, P100Q, D105E
# B5: 1-116-1 (antibody, V domains shown)
# VH: B1 VH with Y103S, M106L, V108Y, T114L
# VL: B1 VL with L21I, K45Q, G50A, F96R, P100Q, D105E
# B6: 1-314-1 (antibody, V domains shown)
# VH: B1 VH with A92T, Y103L
# VL: B1 VL with L21I, G28A, A32D, G50A, F96R, P100Q, D105E
# B7: 2-43-1 (antibody, V domains shown)
# VH: EVQLLESGGGLVQPGGSLRLSCAASGFTFSSYAMSWVRQAPGKGLEWVSAISGSGGSTFYADSVTGRFTISRDNSKNTLFLQLNSLRAEDTAVYHCAKDGRFNWNYGASDIWGQGTMVTVSS
# VL: EIVMTQSPATLSVSPGERATLSCRTSQSVSSNLAWYQQKPGQAPRLLIYGASTRATGIPARFSGSGSGTEFTLTISSLQSEDFAVYYCQQYNNWPLTFGGGTKVEIKR
# B8: 2-177-1 (antibody, V domains shown)
# VH: EVQLLESGGGLIQPGGSLRLSCAASGFTFSSFAMSWVRQAPGKGLEWVSTISGSGGSTYYADFVKGRFTISRDNSKNTLYLQMNSLRAEDTAVYYCAKDGRYNWNYGAFDIWGQGTMVTVSS
# VL: B7 VL with T25A, S30R, Y36F
# B9: 2-112-1 (antibody, V domains shown)
# VH: B8 VH with S57Y, Y59F, F63S
# VL: B7 VL with T25A, I58F, V85I
# Molecular target: mature GDF8 (UniProt O14793 267-375)
# Experiment: BIAcore
# Sequence of mature GDF8 (O14793 267-375): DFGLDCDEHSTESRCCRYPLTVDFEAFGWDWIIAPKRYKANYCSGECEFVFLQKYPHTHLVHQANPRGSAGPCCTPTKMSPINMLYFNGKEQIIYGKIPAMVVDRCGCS
binder,measurement,value
B1,Kd,160 pM
B2,Kd,240 pM
B3,Kd,83 pM
B4,Kd,43 pM
B5,Kd,12 pM
B6,Kd,110 pM
B7,Kd,1500 pM
B8,Kd,890 pM
B9,Kd,11 pM
